From patent US20250361268A1, “NOVEL ANTI-INFLAMMATORY PEPTIDE AND USE THEREOF” (NOVACELL TECHNOLOGY INC., priority 2022, published 2025)

T1: formyl peptide receptor 2 (FPR2) (UniProt P25090 1-351, limits assumed)
T1 sequence (looked up): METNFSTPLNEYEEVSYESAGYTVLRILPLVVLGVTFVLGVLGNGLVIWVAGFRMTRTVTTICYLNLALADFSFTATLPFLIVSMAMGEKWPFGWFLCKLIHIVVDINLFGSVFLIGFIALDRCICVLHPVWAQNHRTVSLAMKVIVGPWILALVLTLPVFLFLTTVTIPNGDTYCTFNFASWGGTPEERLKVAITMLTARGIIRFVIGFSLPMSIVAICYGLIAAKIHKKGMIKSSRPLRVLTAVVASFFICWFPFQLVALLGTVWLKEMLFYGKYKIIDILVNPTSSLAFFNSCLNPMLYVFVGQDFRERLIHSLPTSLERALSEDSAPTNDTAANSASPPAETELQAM

T2: FPR1 (UniProt P21462 1-350, limits assumed)
T2 sequence (looked up): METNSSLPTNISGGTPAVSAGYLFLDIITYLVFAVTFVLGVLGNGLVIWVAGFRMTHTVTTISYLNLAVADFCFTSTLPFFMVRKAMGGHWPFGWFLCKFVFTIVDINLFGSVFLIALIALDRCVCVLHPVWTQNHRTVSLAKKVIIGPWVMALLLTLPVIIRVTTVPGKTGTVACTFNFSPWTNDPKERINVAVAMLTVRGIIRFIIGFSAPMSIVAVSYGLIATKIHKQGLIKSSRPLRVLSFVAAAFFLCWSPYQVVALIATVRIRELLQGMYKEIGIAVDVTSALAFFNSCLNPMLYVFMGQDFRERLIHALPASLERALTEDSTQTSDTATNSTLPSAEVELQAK

B1: peptide of SEQ ID NO 94 (peptide)
peptide: RWRYYVM
HELM: PEPTIDE1{R.W.R.Y.Y.V.[dM].[am]}$$$$V2.0; N-terminus assumed
SMILES: CSCC[C@@H](NC(=O)[C@@H](NC(=O)[C@H](Cc1ccc(O)cc1)NC(=O)[C@H](Cc1ccc(O)cc1)NC(=O)[C@H](CCCNC(=N)N)NC(=O)[C@H](Cc1c[nH]c2ccccc12)NC(=O)[C@@H](N)CCCNC(=N)N)C(C)C)C(N)=O
B2: peptide of SEQ ID NO 93 (peptide)
peptide: HMRYWYM
HELM: PEPTIDE1{[CCCC(=O)[*:2]].H.M.R.Y.W.Y.[dM].[am]}$$$$V2.0
SMILES: CCCC(=O)N[C@@H](Cc1c[nH]cn1)C(=O)N[C@@H](CCSC)C(=O)N[C@@H](CCCNC(=N)N)C(=O)N[C@@H](Cc1ccc(O)cc1)C(=O)N[C@@H](Cc1c[nH]c2ccccc12)C(=O)N[C@@H](Cc1ccc(O)cc1)C(=O)N[C@H](CCSC)C(N)=O
B3: peptide of SEQ ID NO 75 (peptide)
peptide: RWRYKPM
HELM: PEPTIDE1{[CCCC(=O)[*:2]].R.W.R.Y.K.P.[dM].[am]}$$$$V2.0
SMILES: CCCC(=O)N[C@@H](CCCNC(=N)N)C(=O)N[C@@H](Cc1c[nH]c2ccccc12)C(=O)N[C@@H](CCCNC(=N)N)C(=O)N[C@@H](Cc1ccc(O)cc1)C(=O)N[C@@H](CCCCN)C(=O)N1CCC[C@H]1C(=O)N[C@H](CCSC)C(N)=O
B4: peptide of SEQ ID NO 76 (peptide)
peptide: WRYKPM
HELM: PEPTIDE1{[ac].W.R.Y.K.P.[dM].[am]}$$$$V2.0
SMILES: CSCC[C@@H](NC(=O)[C@@H]1CCCN1C(=O)[C@H](CCCCN)NC(=O)[C@H](Cc1ccc(O)cc1)NC(=O)[C@H](CCCNC(=N)N)NC(=O)[C@H](Cc1c[nH]c2ccccc12)NC(C)=O)C(N)=O
B5: peptide of SEQ ID NO 145 (peptide)
peptide: IKYKPM
HELM: PEPTIDE1{[CCCCCCCC(=O)[*:2]].I.K.Y.K.P.[dM].[am]}$$$$V2.0
SMILES: CCCCCCCC(=O)N[C@H](C(=O)N[C@@H](CCCCN)C(=O)N[C@@H](Cc1ccc(O)cc1)C(=O)N[C@@H](CCCCN)C(=O)N1CCC[C@H]1C(=O)N[C@H](CCSC)C(N)=O)[C@@H](C)CC
B6: peptide of SEQ ID NO 40 (peptide)
peptide: RMRYKYM
HELM: PEPTIDE1{[CCCCCCCC(=O)[*:2]].R.M.R.Y.K.Y.[dM].[am]}$$$$V2.0
SMILES: CCCCCCCC(=O)N[C@@H](CCCNC(=N)N)C(=O)N[C@@H](CCSC)C(=O)N[C@@H](CCCNC(=N)N)C(=O)N[C@@H](Cc1ccc(O)cc1)C(=O)N[C@@H](CCCCN)C(=O)N[C@@H](Cc1ccc(O)cc1)C(=O)N[C@H](CCSC)C(N)=O
B7: peptide of SEQ ID NO 32 (peptide)
peptide: RWRYKYM
HELM: PEPTIDE1{R.W.R.Y.K.Y.[dM].[am]}$$$$V2.0; N-terminus assumed
SMILES: CSCC[C@@H](NC(=O)[C@H](Cc1ccc(O)cc1)NC(=O)[C@H](CCCCN)NC(=O)[C@H](Cc1ccc(O)cc1)NC(=O)[C@H](CCCNC(=N)N)NC(=O)[C@H](Cc1c[nH]c2ccccc12)NC(=O)[C@@H](N)CCCNC(=N)N)C(N)=O
B8: peptide of SEQ ID NO 20 (peptide)
peptide: MKYKVM
HELM: PEPTIDE1{[CCCCCCCC(=O)[*:2]].M.K.Y.K.V.[dM].[am]}$$$$V2.0
SMILES: CCCCCCCC(=O)N[C@@H](CCSC)C(=O)N[C@@H](CCCCN)C(=O)N[C@@H](Cc1ccc(O)cc1)C(=O)N[C@@H](CCCCN)C(=O)N[C@H](C(=O)N[C@H](CCSC)C(N)=O)C(C)C
B9: peptide of SEQ ID NO 16 (peptide)
peptide: MRYKVM
HELM: PEPTIDE1{[CCCCCCCC(=O)[*:2]].M.R.Y.K.V.[dM].[am]}$$$$V2.0
SMILES: CCCCCCCC(=O)N[C@@H](CCSC)C(=O)N[C@@H](CCCNC(=N)N)C(=O)N[C@@H](Cc1ccc(O)cc1)C(=O)N[C@@H](CCCCN)C(=O)N[C@H](C(=O)N[C@H](CCSC)C(N)=O)C(C)C
B10: peptide of SEQ ID NO 153 (peptide)
peptide: RWRYRTM
HELM: PEPTIDE1{R.W.R.Y.R.T.[dM].[am]}$$$$V2.0; N-terminus assumed
SMILES: CSCC[C@@H](NC(=O)[C@@H](NC(=O)[C@H](CCCNC(=N)N)NC(=O)[C@H](Cc1ccc(O)cc1)NC(=O)[C@H](CCCNC(=N)N)NC(=O)[C@H](Cc1c[nH]c2ccccc12)NC(=O)[C@@H](N)CCCNC(=N)N)[C@@H](C)O)C(N)=O
B11: peptide of SEQ ID NO 152 (peptide)
peptide: RWRYRIM
HELM: PEPTIDE1{R.W.R.Y.R.I.[dM].[am]}$$$$V2.0; N-terminus assumed
SMILES: CC[C@H](C)[C@H](NC(=O)[C@H](CCCNC(=N)N)NC(=O)[C@H](Cc1ccc(O)cc1)NC(=O)[C@H](CCCNC(=N)N)NC(=O)[C@H](Cc1c[nH]c2ccccc12)NC(=O)[C@@H](N)CCCNC(=N)N)C(=O)N[C@H](CCSC)C(N)=O
B12: peptide of SEQ ID NO 34 (peptide)
peptide: RWRYKYM
HELM: PEPTIDE1{[CCCCCCCC(=O)[*:2]].R.W.R.Y.K.Y.[dM].[am]}$$$$V2.0
SMILES: CCCCCCCC(=O)N[C@@H](CCCNC(=N)N)C(=O)N[C@@H](Cc1c[nH]c2ccccc12)C(=O)N[C@@H](CCCNC(=N)N)C(=O)N[C@@H](Cc1ccc(O)cc1)C(=O)N[C@@H](CCCCN)C(=O)N[C@@H](Cc1ccc(O)cc1)C(=O)N[C@H](CCSC)C(N)=O
B13: peptide of SEQ ID NO 42 (peptide)
peptide: MRYKYM
HELM: PEPTIDE1{[ac].M.R.Y.K.Y.[dM].[am]}$$$$V2.0
SMILES: CSCC[C@H](NC(C)=O)C(=O)N[C@@H](CCCNC(=N)N)C(=O)N[C@@H](Cc1ccc(O)cc1)C(=O)N[C@@H](CCCCN)C(=O)N[C@@H](Cc1ccc(O)cc1)C(=O)N[C@H](CCSC)C(N)=O
B14: peptide of SEQ ID NO 155 (peptide)
peptide: RWRYNYM
HELM: PEPTIDE1{R.W.R.Y.N.Y.[dM].[am]}$$$$V2.0; N-terminus assumed
SMILES: CSCC[C@@H](NC(=O)[C@H](Cc1ccc(O)cc1)NC(=O)[C@H](CC(N)=O)NC(=O)[C@H](Cc1ccc(O)cc1)NC(=O)[C@H](CCCNC(=N)N)NC(=O)[C@H](Cc1c[nH]c2ccccc12)NC(=O)[C@@H](N)CCCNC(=N)N)C(N)=O
B15: peptide of SEQ ID NO 39 (peptide)
peptide: RMRYKYM
HELM: PEPTIDE1{[ac].R.M.R.Y.K.Y.[dM].[am]}$$$$V2.0
SMILES: CSCC[C@H](NC(=O)[C@H](CCCNC(=N)N)NC(C)=O)C(=O)N[C@@H](CCCNC(=N)N)C(=O)N[C@@H](Cc1ccc(O)cc1)C(=O)N[C@@H](CCCCN)C(=O)N[C@@H](Cc1ccc(O)cc1)C(=O)N[C@H](CCSC)C(N)=O

Target: T1, formyl peptide receptor 2 (FPR2)
Experiment: cell-based or functional assay

Row | Binder | EC50 for [Ca2+] [µM]
1 | B1 | < 0.01
2 | B2 | < 0.01
3 | B3 | < 0.01
4 | B4 | < 0.01

Target: T2, FPR1
Experiment: cell-based or functional assay

Row | Binder | EC50 for [Ca2+] [µM]
5 | B5 | > 10
6 | B6 | > 10
7 | B7 | > 10
8 | B8 | > 10
9 | B9 | > 10
10 | B10 | > 10
11 | B11 | > 10
12 | B12 | > 10
13 | B13 | > 10
14 | B14 | > 10
15 | B15 | > 10
